Assay results published in PMC4586043.

Experiments:
[1] = target: 2G12; assay: ELISA; conditions: read at the highest antibody concentration, 1 µg/ml 2G12, read off a plot
[2] = target: 3BC315 Fab; assay: ELISA; conditions: read off a plot
[3] = target: 3BC176 IgG; assay: ELISA; conditions: parent: est. 0.92; read off a plot
[4] = target: PGT145; assay: ELISA; conditions: read at the highest antibody concentration, about 15 µg/ml PGT145; parent: est. 0.87; read off a plot
[5] = target: BG505 SOSIP.664 trimer produced in 293S cells (HIV-1 isolate BG505); assay: ITC
[6] = target: BG505 SOSIP.664 trimer produced in 293S cells, deglycosylated by EndoH (HIV-1 isolate BG505); assay: ITC; Auto-iTC200; trimer in the cell at 4.0–5.0 μM, 3BC315 Fab in the syringe at ~20 × the molar concentration of the trimer; single-site binding model
[7] = target: His-tagged BG505 SOSIP.664 trimer produced in 293S cells, EndoH-deglycosylated (HIV-1 isolate BG505); assay: SPR; Biacore 3000, 25 °C, HBS-EP; His-tagged trimer captured by anti-histidine antibody on CM5 to 500 RU; 3BC315 IgG or Fab titrated down in twofold steps from 1 μM; IgG fitted with a bivalent, Fab with a Langmuir model
[8] = target: His-tagged BG505 SOSIP.664 trimer produced in 293T cells (HIV-1 isolate BG505); assay: SPR; design: kon1: unit not given here
[9] = target: BG505 Env on virus (HIV-1 isolate BG505)
[10] = target: JR-FL Env on virus (HIV-1 isolate JR-FL) (UniProt Q75760)

Q: What does the source list for “D7324-tagged BG505 SOSIP.664 trimer produced in 293T cells N88Q”?
A: response ([1]; parent: est. 1.2): 1 OD450; response [2]: 0.98 OD450

Q: With “D7324-tagged BG505 SOSIP.664 trimer produced in 293T cells W623A” as the molecule, how does the response ([1]; parent: est. 1.25) read?
A: 1.2 OD450

Q: And the response [3]?
A: 0.4 OD450

Q: What about the response [4] of the same molecule?
A: 0.83 OD450

Q: Which Kd [5] does the source give for 3BC315 Fab here?
A: 186 nM

Q: What about the stoichiometry N [5] of the same molecule?
A: 1.17

Q: And the Kd [6]?
A: 167 nM

Q: And the stoichiometry N [6]?
A: 1.71

Q: And the Kd [7]?
A: 7.1 nM

Q: What about the koff [7] of the same molecule?
A: 0.00059 s⁻¹

Q: And the stoichiometry N [7]?
A: 1.9

Q: With “D7324-tagged BG505 SOSIP.664 trimer produced in 293T cells N625Q; N637Q” as the molecule, how does the response ([2]; read at the highest concentration, 10 µg/ml 3BC315 Fab, parent: est. 1.1) read?
A: 0.93 OD450

Q: 3BC315 IgG (antibody) was tested. Which Kd1 [8] did it give?
A: < 10 nM

Q: What about the Kd2 [8] of the same molecule?
A: 24 RU

Q: What about the koff1 [8] of the same molecule?
A: < 1e-05 s⁻¹

Q: And the koff2 [8]?
A: 0.0084 s⁻¹

Q: What about the kon1 [8] of the same molecule?
A: 4900

Q: What about the kon2 [8] of the same molecule?
A: 0.00034 RUs^−1

Q: And the stoichiometry N [8]?
A: 1.1

B1: 3BC315 IgG (antibody, V domains shown)
VH: QVQLVQSGAEMKDPGASVKVSCRASGYKFTDYYMHWVRQAPGQGLEWVGWVNTNGGFTKYGAKFQGRVTVTRDTSTNTVFLELSRLTFGDTAMYFCARPMRPVSHGIDYSGLFVFQFWGRGTMVTVSS
VL: QSALTQPASVSASPGQSITISCSGTRSDVGGYDFVSWYQQHPGKVPKLIIYEVTKRPSGIPQRFSGSKSGNTASLTISGLQADDEADYYCCSYANYDKLILGGGTKLTVL
Q: Which results are given for B1?
A: IC50 of neutralisation of BG505 virus (TZM-bl) after 1, 3, 6 and 22 h pre-incubation with IgG (1.62 falling to 0.41) [9]: 1.62 µg/mL; IC50 of neutralisation of JR-FL virus (TZM-bl) after 1, 3, 6 and 22 h pre-incubation with IgG (5.84 falling to 0.83) [10]: 5.84 µg/mL

B2: 3BC176 IgG (antibody, V domains shown)
VH: QVQLMQSGAQLRDPGDSLKISCKASGYNFIDYHIHWVRLAPGRGLEWMGWIDPVGGITKYAGQFQGRLSLTRDTSTNTLFLELSRLTAGDTAVYFCARSMRPVDHGIDYSGLFVFHFWGRGSDVLVSS
VL: QSVLTQPASVSASPGQSITVSCTGSRNDVGGYDFVSWYQRHPGGVPKLIIYEISKRPSGIPQRFSGSRSGNTASLTISGLQDDDEADYYCCSYASYDRLIFGGGTRVSVL
Q: B2 was tested. Which IC50 of neutralisation of BG505 virus (TZM-bl) after 1, 3, 6 and 22 h pre-incubation with IgG (1.93 falling to 0.33) [9] did it give?
A: 1.93 µg/mL

Q: What about the IC50 of neutralisation of JR-FL virus (TZM-bl) after 1, 3, 6 and 22 h pre-incubation with IgG (0.30 falling to 0.03) [10] of the same molecule?
A: 0.3 µg/mL
